Patent publication EP4782465A1

What was measured:
[1] = biological target: Insulin receptor of C2C12 mouse myoblasts (mouse) (UniProt P15208); test: cell-based or functional assay
[2] = biological target: Human insulin receptor subtype B (human) (UniProt P06213); test: cell-based or functional assay

Chain of Insulin receptor of C2C12 mouse myoblasts (mouse) (P15208 28-1372): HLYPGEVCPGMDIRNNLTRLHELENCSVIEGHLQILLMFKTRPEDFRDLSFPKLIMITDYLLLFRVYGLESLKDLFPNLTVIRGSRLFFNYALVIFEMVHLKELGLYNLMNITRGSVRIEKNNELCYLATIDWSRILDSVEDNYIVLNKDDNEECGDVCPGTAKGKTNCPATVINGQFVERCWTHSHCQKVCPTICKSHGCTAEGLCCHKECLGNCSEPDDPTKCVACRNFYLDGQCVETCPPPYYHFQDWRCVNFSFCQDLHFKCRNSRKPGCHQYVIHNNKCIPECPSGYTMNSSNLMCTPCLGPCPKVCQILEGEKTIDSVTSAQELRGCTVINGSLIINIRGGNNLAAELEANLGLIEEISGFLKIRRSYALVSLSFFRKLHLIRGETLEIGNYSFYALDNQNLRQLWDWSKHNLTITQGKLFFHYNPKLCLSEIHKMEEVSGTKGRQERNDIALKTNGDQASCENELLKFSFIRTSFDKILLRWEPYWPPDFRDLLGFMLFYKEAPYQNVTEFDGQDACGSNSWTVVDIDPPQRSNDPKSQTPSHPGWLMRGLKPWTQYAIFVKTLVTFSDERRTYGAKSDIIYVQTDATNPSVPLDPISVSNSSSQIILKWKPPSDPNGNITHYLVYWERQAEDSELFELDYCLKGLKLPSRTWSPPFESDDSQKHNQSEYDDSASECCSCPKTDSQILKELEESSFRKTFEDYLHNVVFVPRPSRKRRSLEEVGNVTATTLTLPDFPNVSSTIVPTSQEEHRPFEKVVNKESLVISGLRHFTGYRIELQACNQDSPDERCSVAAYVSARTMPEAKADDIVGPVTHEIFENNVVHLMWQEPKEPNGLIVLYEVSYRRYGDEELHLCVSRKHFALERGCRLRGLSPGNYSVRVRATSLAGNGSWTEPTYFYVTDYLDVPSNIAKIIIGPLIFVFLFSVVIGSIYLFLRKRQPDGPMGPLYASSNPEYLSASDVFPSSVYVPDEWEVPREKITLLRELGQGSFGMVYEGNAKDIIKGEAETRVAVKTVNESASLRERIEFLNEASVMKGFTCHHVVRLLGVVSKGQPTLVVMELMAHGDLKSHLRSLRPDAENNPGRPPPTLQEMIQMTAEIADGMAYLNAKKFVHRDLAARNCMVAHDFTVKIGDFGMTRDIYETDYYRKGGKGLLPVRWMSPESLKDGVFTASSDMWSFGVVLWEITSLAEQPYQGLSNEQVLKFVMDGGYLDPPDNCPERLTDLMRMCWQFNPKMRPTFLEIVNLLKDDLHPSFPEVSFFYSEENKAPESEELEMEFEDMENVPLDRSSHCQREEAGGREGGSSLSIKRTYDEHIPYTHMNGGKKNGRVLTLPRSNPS

With LY3209590 (Fc fusion) the AKT phosphorylation activity (EC50) [1] was 194 nM and the Human insulin receptor subtype B activity (EC50) [2] was 116 nM.
